# Laboratory results published in US12195506B2, “Immunotherapy with A*01 restricted peptides and combination of peptides against cancers and related methods” (Immatics Biotechnologies GmbH, priority 2018, dated 2025).
# Target: HLA-A*01:01 (Homo sapiens, UniProt P04439, A114D/A174V/A182V/D101N/D185E/E176A/E190D/L180R/Q94H/R68K/S129P/T187R/V100A/V91M/W191G)
# Experiment: MHC binding assay: UV-ligand exchange, ELISA of stabilized MHC complexes (peptide exchange yield)
# Conditions: binding to HLA-A*01:01, UV-ligand exchange
# Excerpt: Candidate peptides for T cell based therapies according to the present invention were further tested for their MHC binding capacity (affinity). The individual peptide-MHC complexes were produced by UV-ligand exchange, where a UV-sensitive peptide is cleaved upon UV-irradiation and exchanged with the peptide of interest as analyzed. Only peptide candidates that can effectively bind and stabilize the peptide-receptive MHC molecules prevent dissociation of the MHC complexes. To determine the yield of the exchange reaction, an ELISA was performed based on the detection of the light chain (β2m) of stabilized MHC complexes. The assay was performed as generally described in Rodenko et al. (Rodenko et al., 2006)
# 96 well MAXISorp plates (NUNC) were coated over night with 2 ug/ml streptavidin in PBS at room temperature, washed 4× and blocked for 1 h at 37° C. in 2% BSA containing blocking buffer. Refolded HLA-A*02:01/MLA-001 monomers served as standards, covering the range of 15-500 ng/ml. Peptide-MHC monomers of the UV-exchange reaction were diluted 100-fold in blocking buffer. Samples were incubated for 1 h at 37° C., washed four times, incubated with 2 ug/ml HRP conjugated anti-β2m for 1 h at 37° C., washed again and detected with TMB solution that is stopped with […]. Absorption was measured at 450 nm.
row,Substance,Peptide exchange
1,46 (RSDPGGGGLAYAAY; listed as Homo sapiens) [compound 46],++++ (>75% = ++++)
2,47 (WSDGVPLLY; listed as Homo sapiens) [compound 47],++++ (>75% = ++++)
3,48 (FTTQDELLVY; listed as Homo sapiens) [compound 48],+++ (>50 = +++)
4,49 (GSFSIQHTY; listed as Homo sapiens) [compound 49],++ (>20% = ++)
5,50 (ITDEDEDMLSY; listed as Homo sapiens) [compound 50],+++ (>50 = +++)
6,51 (STEERRLNY; listed as Homo sapiens) [compound 51],+++ (>50 = +++)
7,52 (TTQDELLVY; listed as Homo sapiens) [compound 52],+++ (>50 = +++)
8,55 (ATEGDVLNY; listed as Homo sapiens) [compound 55],+++ (>50 = +++)
9,56 (VTEYAEEIYQY; listed as Homo sapiens) [compound 56],+++ (>50 = +++)
10,57 (ASDPASSTSCY; listed as Homo sapiens) [compound 57],+++ (>50 = +++)
11,58 (YLENSASWY; listed as Homo sapiens) [compound 58],++++ (>75% = ++++)
12,59 (FTDSQGNDIK; listed as Homo sapiens) [compound 59],+++ (>50 = +++)
13,62 (VSELVTTGHY; listed as Homo sapiens) [compound 62],+++ (>50 = +++)
14,63 (TSEISQNALMY; listed as Homo sapiens) [compound 63],++++ (>75% = ++++)
15,65 (SSDFDPLVY; listed as Homo sapiens) [compound 65],++++ (>75% = ++++)
16,67 (NVDQNQNSY; listed as Homo sapiens) [compound 67],+++ (>50 = +++)
17,68 (QSLPEFGLTY; listed as Homo sapiens) [compound 68],++ (>20% = ++)

row,Substance,Peptide exchange
1,69 (QSLPEFGLTYY; listed as Homo sapiens) [compound 69],++ (>20% = ++)
2,72 (VTDSTTKIAY; listed as Homo sapiens) [compound 72],+++ (>50 = +++)
3,74 (EMEQQSQEY; listed as Homo sapiens) [compound 74],++++ (>75% = ++++)
4,76 (QTDVERIKDTY; listed as Homo sapiens) [compound 76],+++ (>50 = +++)
5,78 (QLDSAVKNLY; listed as Homo sapiens) [compound 78],+++ (>50 = +++)
6,80 (ELCPLPGTSAY; listed as Homo sapiens) [compound 80],++ (>20% = ++)
7,85 (SSDNYEHWLY; listed as Homo sapiens) [compound 85],++++ (>75% = ++++)
8,86 (VDPASNTY; listed as Homo sapiens) [compound 86],++ (>20% = ++)
9,87 (AFDDIATYF; listed as Homo sapiens) [compound 87],++ (>20% = ++)
10,88 (KEVDPAGHSYI; listed as Homo sapiens) [compound 88],++ (>20% = ++)
11,89 (EVYDGREHSAY; listed as Homo sapiens) [compound 89],++ (>20% = ++)
12,90 (YEDHFPLLF; listed as Homo sapiens) [compound 90],++ (>20% = ++)
13,92 (TTDDTTAMASAS; listed as Homo sapiens) [compound 92],++ (>20% = ++)
14,93 (HLKILSPIY; listed as Homo sapiens) [compound 93],+++ (>50 = +++)
15,94 (KPSAVKDSIY; listed as Homo sapiens) [compound 94],++ (>20% = ++)
16,95 (SSDPKAVMF; listed as Homo sapiens) [compound 95],++ (>20% = ++)
